In patent US20220298235A1 (AKESO BIOPHARMA, published 2022):

How the values were obtained:
[1] = molecular target: T1, human p40-His (human, UniProt P29460 23-328); assay: indirect ELISA, p40-His coat 0.25 µg/mL
T1 construct: Made by Akeso Biopharma; construct limits and tag not described; also called human IL-12/IL-23 p40 protein domain; human IL-12/IL-23 p40; not shown: His tag
T1 sequence (looked up): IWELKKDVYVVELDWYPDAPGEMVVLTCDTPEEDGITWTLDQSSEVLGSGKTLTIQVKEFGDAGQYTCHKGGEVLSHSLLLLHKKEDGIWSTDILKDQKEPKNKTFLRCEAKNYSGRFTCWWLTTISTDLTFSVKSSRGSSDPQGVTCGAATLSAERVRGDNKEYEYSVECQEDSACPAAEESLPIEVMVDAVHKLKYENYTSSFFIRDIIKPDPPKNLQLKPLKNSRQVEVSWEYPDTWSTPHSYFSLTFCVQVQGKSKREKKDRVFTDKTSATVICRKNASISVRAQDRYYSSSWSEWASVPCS
Description: A microplate was coated with human p40-His (Akeso Biopharma, Inc.; gene of p40: GeneBank NM002187). After incubation at 4° C. for no less than 12 h, the plate was washed with PBST, patted dry and blocked with a solution of 1% BSA in PBS. After blocking was completed, the plate was washed with PBST and patted dry. The antibody diluted with PBST solution in gradient was added into the wells of the plate, and the antibody dilution gradient is detailed in Table 1. The plate containing the test antibody was incubated at 37° C. for 30 min and then washed with PBST and patted dry. […] TMB (Neogen, 308177) was added for color developing for 5 min in the absence of light, and then stop solution was added to terminate the chromogenic reaction. Then the plate was put into a plate reader immediately, and the OD value of each well in the plate was read at 450 nm. The data were analyzed by SoftMax Pro 6.2.1.
The binding EC₅₀ of antibody was calculated by curve fitting using antibody concentration as the abscissa and absorbance value as the ordinate, and the results are shown in Table 4 below.

[2] = molecular target: T2, Human IL12 (His Tag) (human, UniProt P29459 23-219; P29460 23-328); assay: FACS competition, IL12-His (40 nM mixed 1:1) on 293T-IL-12Rβ1&IL-23R cells
T2 construct: Bought His-tagged heterodimer
T2 sequence (looked up) 1: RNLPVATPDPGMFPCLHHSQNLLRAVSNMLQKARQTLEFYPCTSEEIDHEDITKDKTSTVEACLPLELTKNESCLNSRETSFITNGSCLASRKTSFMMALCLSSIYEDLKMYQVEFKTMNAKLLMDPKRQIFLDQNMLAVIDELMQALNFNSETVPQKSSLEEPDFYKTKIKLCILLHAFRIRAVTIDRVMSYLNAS
T2 sequence (looked up) 2: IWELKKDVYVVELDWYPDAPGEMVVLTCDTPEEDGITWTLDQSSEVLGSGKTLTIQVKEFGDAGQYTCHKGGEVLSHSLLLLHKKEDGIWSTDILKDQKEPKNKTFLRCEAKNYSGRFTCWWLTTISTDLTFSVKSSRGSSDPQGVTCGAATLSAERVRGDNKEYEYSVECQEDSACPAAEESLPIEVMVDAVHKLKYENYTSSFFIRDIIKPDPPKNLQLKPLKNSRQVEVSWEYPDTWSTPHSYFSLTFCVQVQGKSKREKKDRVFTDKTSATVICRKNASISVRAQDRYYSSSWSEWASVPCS
Description: 200 μL of 1% PBSA was added into each sample, and the mixture was centrifuged at 1200 rpm for 5 min to discard the supernatant. According to experiment design, correspondingly diluted antibody (highest final concentration of 60 μg/mL, 3-fold dilution, 8 concentrations in total) and IL12-His (Sino Biological, Cat. No.: CT-050-H08H-20) (40 nM) were mixed at a ratio of 1:1, and a blank control was set. The mixture of antibody and IL12 was incubated on ice for 30 min and then added to the cell precipitate at 100 μL/sample. The resulting mixture was well mixed and incubated on ice for 60 min 200 μL of 1% PBSA was added, and the mixture was centrifuged at 1200 rpm for 5 min to discard the supernatant, and then washed twice. THETM His tag antibody (FITC) (Genscript, Cat. No.: A01620) was diluted at a ratio of 1:500 and added to each tube at 100 μL. The mixture was well mixed and incubated on ice for 40 min in the absence of light. 200 μL of 1% PBSA was added, and the mixture was centrifuged at 1200 rpm for 5 min to discard the supernatant, and then washed twice. 1% PBSA was added at 200 μL/tube, and the cells were resuspended and transferred to a flow cytometry tube for testing.

[3] = molecular target: T1, human p40-His; assay: BLI (Fortebio), p40-His on HIS1K sensor, antibody 5-0.31 nM, 37 °C, 1:1 fit
Description: The sample dilution buffer for H5L9, H5L10, H5L11, H5L12, H5L14, H8L15, Ab123FR1 and ustekinumab was PBS (0.02% Tween-20, 0.1% BSA, pH 7.4). p40-His was immobilized on a HIS1K (manufacturer: Fortebio, Cat. No.: 18-5120) sensor at a concentration of 1 μg/mL for 40 s. The sensor was equilibrated in a buffer for 60 s, and the p40-His immobilized on the sensor bound to the antibody at a concentration of 5-0.31 nM (two-fold dilution) for 120 s, and then the protein dissociated in the buffer for 300 s. The sensor was refreshed with 10 mM glycine solution (pH=1.5). The detection temperature was 37° C., the detection frequency was 0.3 Hz, and the sample plate shaking rate was 500 rpm. The data were analyzed by 1:1 model fitting to obtain affinity constants.

[4] = molecular target: T3, human IL-23 (IL-23-His-Biotin) (human, UniProt Q9NPF7 20-189; P29460 23-328, biotin label, site not stated); assay: FACS competition, IL23-His-Biotin (4 µg/mL mixed 1:1) on 293T-IL-12Rβ1&IL-23R cells
T3 construct: Akesobio lot 20161209; His-tagged and biotinylated
T3 sequence (looked up) 1: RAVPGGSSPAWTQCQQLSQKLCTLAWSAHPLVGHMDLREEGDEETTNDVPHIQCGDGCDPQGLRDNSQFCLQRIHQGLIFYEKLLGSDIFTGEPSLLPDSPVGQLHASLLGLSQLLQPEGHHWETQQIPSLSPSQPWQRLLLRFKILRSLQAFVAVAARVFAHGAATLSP
T3 sequence (looked up) 2: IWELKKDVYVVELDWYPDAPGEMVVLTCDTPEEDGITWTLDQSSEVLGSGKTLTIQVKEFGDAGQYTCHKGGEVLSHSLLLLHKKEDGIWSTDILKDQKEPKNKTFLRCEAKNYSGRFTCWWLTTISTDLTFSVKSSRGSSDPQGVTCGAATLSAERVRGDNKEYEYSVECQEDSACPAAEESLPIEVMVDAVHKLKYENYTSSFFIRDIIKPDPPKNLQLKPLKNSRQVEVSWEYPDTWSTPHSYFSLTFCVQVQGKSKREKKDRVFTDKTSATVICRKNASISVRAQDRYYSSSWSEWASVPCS
Description: 200 μL of 1% PBSA was added into each sample, and the mixture was centrifuged at 1200 rpm for 5 min to discard the supernatant. According to experiment design, correspondingly diluted antibody (highest concentration of 60 μg/mL, 3-fold dilution, 8 concentrations in total) and human IL23-His-Biotin (Akeso Biopharma, Inc., Lot. No.: 20161209) (4 μg/mL) were mixed at a ratio of 1:1, and a blank control was set. The mixture of antibody and IL23-His-Biotin was incubated on ice for 30 min and then added to the cell precipitate at 100 μL/sample. The resulting mixture was well mixed and incubated on ice for 60 min. 200 μL of 1% PBSA was added, and the mixture was centrifuged at 1200 rpm for 5 min to discard the supernatant, and then washed twice. FITC Steptavidin (Biolegend, Cat. No.: 405202) was diluted at a ratio of 1:500 and added to each tube at 100 μL. The mixture was well mixed and incubated on ice for 40 min in the absence of light. 200 μL of 1% PBSA was added, and the mixture was centrifuged at 1200 rpm for 5 min to discard the supernatant, and then washed twice. 1% PBSA was added at 200 μL/tube, and the cells were resuspended and transferred to a flow cytometry tube for testing.

EC50 [1]: 59 pM
EC50 [2]: 1.46 µg/mL
Kd [3]: 60.9 pM
S E (kon) [3]: 213000 M⁻¹ s⁻¹
S E(kdis) [3]: 0.000137 s⁻¹
koff [3]: 0.00018 s⁻¹
kon [3]: 2.95e+06 M⁻¹ s⁻¹
EC50 [4]: 0.894 µg/mL
B1: H8L15 (antibody, human IgG1, kappa, V domains shown)
VH: EVQLVQSGAEVKKPGESLKISCQSSGYTFTSYWIGWVRQMPGQGLEWIGIMSPVDSDIRYNPMFRGQVTMSVDKSSSTAYLQWSSLKASDTAMYYCARRRPGQGYFDFWGQGTMVTVSS
VL: EIVLTQSPATLSASPGERATISCRASQSVGTWVAWYQQKPGQAPRSLIYAASNLQSGIPARFSGSGSGTDFTLTISSLEPEDFAVYYCQQYNIYPYTFGQGTRLEIKR
notes: human IgG1 (P01857) / kappa (P01834) constant regions; also called anti-human IL-12/IL-23 p40 antibody H8L15; H8L15H1L1
